Data from publication PMC7801515.

Tests used:
Assay in all cases: flow cytometry on cells
[1] = molecular target: SARS-CoV-2 S glycoprotein R457A, full-length, cell surface-expressed (SARS-CoV-2) (UniProt P0DTC2)
[2] = molecular target: SARS-CoV-2 S glycoprotein T415A, full-length, cell surface-expressed (SARS-CoV-2) (UniProt P0DTC2)
[3] = molecular target: SARS-CoV-2 S glycoprotein Y421A, full-length, cell surface-expressed (SARS-CoV-2) (UniProt P0DTC2)
[4] = molecular target: SARS-CoV-2 S glycoprotein Y473A, full-length, cell surface-expressed (SARS-CoV-2) (UniProt P0DTC2)

Measured: percent reduction in binding (MFI relative to wild type)

P2C-1F11 monoclonal antibody
> 50%: [1] | [2] | [3] | [4]
